From US20090023658A1 (TOSHIKAZU NAKAMURA, published 2009)

Legend:
[1] = target: c-Met/HGF receptor of rat liver plasma membrane (rat) (UniProt P97523); experiment: displacement of 60 pM 125I-HGF from rat liver plasma membrane
[2] = target: c-Met/HGF receptor of rat liver plasma membrane (rat) (UniProt P97523); experiment: Scatchard analysis, 125I-HGF on rat liver plasma membrane
[3] = target: c-Met/HGF receptor expressed on the lung tumor cell line A549 (UniProt P08581); experiment: cell-based or functional assay
[4] = target: T1, c-Met/HGF receptor of rat liver plasma membrane (rat, UniProt P97523 25-1382); experiment: Scatchard analysis, 125I-HGF/NK4 on rat liver plasma membrane
T1 construct: whole, on cells; The assay used a plasma membrane preparation, not a purified receptor; also called cell surface receptor; HGF receptors
Description: (§1) Using the HGF/NK4 prepared in Example 1, its binding affinity for the cell surface receptor was investigated. As a control experiment, the binding affinity of HGF for the cell surface receptor was also investigated. In this connection, the HGF/NK4 and HGF were radio-labeled (¹²⁵I-HGF/NK4 and ¹²⁵I-HGF) by the chloramine-T method, and as the cell surface receptor sample, the plasma membrane prepared from the rat liver was used.

[5] = target: T1, c-Met/HGF receptor of rat liver plasma …; experiment: displacement of 60 pM 125I-HGF from rat liver plasma membrane
Description: as §1
Then, to investigate whether HGF/NK4 is a competitive antagonist of HGF, the liver plasma membrane (50 μg) was incubated in the presence of ¹²⁵I-HGF alone (60 pM) or a mixture of ¹²⁵I-HGF and a varying amount of unlabeled HGF or unlabeled HGF/NK4.

c-Met/HGF receptor expressed on the lung tumor cell line A549, sequence (P08581 25-1390 limits assumed): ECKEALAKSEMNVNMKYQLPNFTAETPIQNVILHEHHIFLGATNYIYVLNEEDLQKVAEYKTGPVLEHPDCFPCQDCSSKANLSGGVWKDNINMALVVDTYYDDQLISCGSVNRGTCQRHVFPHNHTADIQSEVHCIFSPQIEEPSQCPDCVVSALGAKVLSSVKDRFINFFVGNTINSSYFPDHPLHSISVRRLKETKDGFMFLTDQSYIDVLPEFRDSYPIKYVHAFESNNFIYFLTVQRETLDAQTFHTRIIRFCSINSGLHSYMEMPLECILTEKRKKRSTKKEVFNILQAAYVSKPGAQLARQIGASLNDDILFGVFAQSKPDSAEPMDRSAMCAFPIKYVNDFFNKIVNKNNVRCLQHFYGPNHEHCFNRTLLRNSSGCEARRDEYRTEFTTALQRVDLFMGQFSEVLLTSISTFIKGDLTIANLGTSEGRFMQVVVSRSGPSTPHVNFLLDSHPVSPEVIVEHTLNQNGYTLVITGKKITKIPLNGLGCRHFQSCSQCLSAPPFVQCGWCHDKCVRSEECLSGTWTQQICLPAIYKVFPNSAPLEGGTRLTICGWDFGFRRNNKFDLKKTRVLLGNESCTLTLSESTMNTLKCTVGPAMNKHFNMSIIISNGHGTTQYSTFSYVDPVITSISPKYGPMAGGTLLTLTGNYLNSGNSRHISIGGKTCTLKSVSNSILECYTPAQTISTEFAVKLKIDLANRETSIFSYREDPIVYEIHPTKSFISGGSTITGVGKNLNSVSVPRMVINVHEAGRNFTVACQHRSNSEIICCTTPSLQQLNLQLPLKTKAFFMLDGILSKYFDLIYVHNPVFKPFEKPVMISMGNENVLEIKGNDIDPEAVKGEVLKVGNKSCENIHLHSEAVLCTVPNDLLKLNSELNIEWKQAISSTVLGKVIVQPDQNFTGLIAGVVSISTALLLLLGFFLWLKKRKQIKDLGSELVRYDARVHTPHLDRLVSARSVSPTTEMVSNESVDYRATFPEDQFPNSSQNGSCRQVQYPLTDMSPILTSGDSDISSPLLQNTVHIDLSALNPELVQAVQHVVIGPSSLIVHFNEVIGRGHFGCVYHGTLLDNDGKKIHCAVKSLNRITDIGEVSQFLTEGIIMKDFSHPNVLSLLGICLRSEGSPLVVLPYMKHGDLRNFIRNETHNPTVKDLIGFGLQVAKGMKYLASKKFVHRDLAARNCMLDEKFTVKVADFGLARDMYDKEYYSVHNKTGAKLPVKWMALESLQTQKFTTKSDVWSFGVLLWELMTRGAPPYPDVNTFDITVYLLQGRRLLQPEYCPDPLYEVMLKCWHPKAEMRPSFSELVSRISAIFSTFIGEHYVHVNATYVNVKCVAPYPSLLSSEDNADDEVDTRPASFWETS

## recombinant human hepatocyte growth factor (HGF), heterodimer of alpha-chain and beta-chain (from UniProt P14210 32-494; P14210 495-728) (ligand)
[1]
  IC50: 0.06 nM
[2]
  Kd: 0.0645 nM
[3]
  tyrosine phosphorylation of c-Met in A549 cells (immunoprecipitation with anti-c-Met antibody, Western blot with anti-phosphotyrosine antibody): 110 pM

B1: HGF/NK4 (PyrGlu32-Val478 region of human HGF, obtained by elastase digestion of recombinant HGF) (ligand)
chain: ERKRRNTIHEFKKSAKTTLIKIDPALKIKTKKVNTADQCANRCTRNKGLPFTCKAFVFDKARKQCLWFPFNSMSSGVKKEFGHEFDLYENKDYIRNCIIGKGRSYKGTVSITKSGIKCQPWSSMIPHEHSFLPSSYRGKDLQENYCRNPRGEEGGPWCFTSNPEVRYEVCDIPQCSEVECMTCNGESYRGLMDHTESGKICQRWDHQTPHRHKFLPERYPDKGFDDNYCRNPDGQPRPWCYTLDPHTRWEYCAIKTCADNTMNDTDVPLETTECIQGQGEGYRGTVNTIWNGIPCQRWDSQYPHEHDMTPENFKCKDLRENYCRNPDGSESPWCFTTDPNIRVGYCSQIPNCDMSHGQDCYRGNGKNYMGNLSQTRSGLTCSMWDKNMEDLHRHIFWEPDASKLNENYCRNPDDDAHGPWCYTGNPLIPWDYCPISRCEGDTTPTIV
modifications: N-terminal residue is pyroglutamate (PyrGlu32 by prepro-HGF numbering; Xaa at position 1 of SEQ ID NO:1)
notes: also called unlabeled HGF/NK4
[4]
  Kd: 0.486 nM
[5]
  IC50: 0.6 nM
